Molecular target: T1, complement C1q
T1 construct: source: bought: Complement Technology (Cat#A099); copies: 6 + 6 + 6
Assay: BLI; biotinylated TREM2 WT and variants immobilised on SA biosensors; C1q 62.5 – 1000 nM in PBS with 0.1% BSA and 0.005% Tween-20; 1:1 kinetic fits
Conditions: both partners purified

Binder | Kd [nM]
TREM2 R76D (receptor, biotin on the C-terminal BirA biotinylation sequence) HNTTVFQGVAGQSLQVSCPYDSMKHWGRRKAWCRQLGEKGPCQRVVSTHNLWLLSFLDRWNGSTAITDDTLGGTLTITLRNLQPHDAGLYQCQSLHGSEADTLRKVLVEVLADPLD | 13800 ± 4860
TREM2 L75D (receptor, biotin on the C-terminal BirA biotinylation sequence) HNTTVFQGVAGQSLQVSCPYDSMKHWGRRKAWCRQLGEKGPCQRVVSTHNLWLLSFDRRWNGSTAITDDTLGGTLTITLRNLQPHDAGLYQCQSLHGSEADTLRKVLVEVLADPLD | 110 ± 10
TREM2 T85D (receptor, biotin on the C-terminal BirA biotinylation sequence) HNTTVFQGVAGQSLQVSCPYDSMKHWGRRKAWCRQLGEKGPCQRVVSTHNLWLLSFLRRWNGSTAIDDDTLGGTLTITLRNLQPHDAGLYQCQSLHGSEADTLRKVLVEVLADPLD | 110 ± 10
TREM2 R122D/K123D (receptor, biotin on the C-terminal BirA biotinylation sequence) HNTTVFQGVAGQSLQVSCPYDSMKHWGRRKAWCRQLGEKGPCQRVVSTHNLWLLSFLRRWNGSTAITDDTLGGTLTITLRNLQPHDAGLYQCQSLHGSEADTLDDVLVEVLADPLD | 820 ± 40

Molecular target: T2, Human IL-34 (19–241) (human, UniProt Q6ZMJ4 19-241)
T2 construct: IL-34, human, residues 19-241, cloned into pHLsec; the oligomeric state was not measured here; source: Expi293F cells, secreted, purified from the media using NiNTA chromatography
T2 sequence (looked up): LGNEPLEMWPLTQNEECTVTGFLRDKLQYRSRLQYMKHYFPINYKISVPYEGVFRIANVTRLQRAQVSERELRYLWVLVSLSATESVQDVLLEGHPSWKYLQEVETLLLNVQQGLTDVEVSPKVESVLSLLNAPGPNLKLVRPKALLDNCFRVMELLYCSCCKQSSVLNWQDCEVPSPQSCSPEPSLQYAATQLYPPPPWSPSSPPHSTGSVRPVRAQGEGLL
Assay: BLI; biotinylated TREM2 WT and variants immobilised on SA biosensors; IL-34 62.5 – 1000 nM in PBS with 0.1% BSA and 0.005% Tween-20; 1:1 kinetic fits
Conditions: both partners purified

Binder | Kd [nM]
TREM2 L75D (receptor, biotin on the C-terminal BirA biotinylation sequence) HNTTVFQGVAGQSLQVSCPYDSMKHWGRRKAWCRQLGEKGPCQRVVSTHNLWLLSFDRRWNGSTAITDDTLGGTLTITLRNLQPHDAGLYQCQSLHGSEADTLRKVLVEVLADPLD | 36.6 ± 0.9
TREM2 T85D (receptor, biotin on the C-terminal BirA biotinylation sequence) HNTTVFQGVAGQSLQVSCPYDSMKHWGRRKAWCRQLGEKGPCQRVVSTHNLWLLSFLRRWNGSTAIDDDTLGGTLTITLRNLQPHDAGLYQCQSLHGSEADTLRKVLVEVLADPLD | 21.5 ± 0.6
TREM2 R122D/K123D (receptor, biotin on the C-terminal BirA biotinylation sequence) HNTTVFQGVAGQSLQVSCPYDSMKHWGRRKAWCRQLGEKGPCQRVVSTHNLWLLSFLRRWNGSTAITDDTLGGTLTITLRNLQPHDAGLYQCQSLHGSEADTLDDVLVEVLADPLD | 18.5 ± 0.3
TREM2 WT (receptor, human, UniProt Q9NZC2 19-230, looked up, biotin on the C-terminal BirA biotinylation sequence, TREM2, human; also called triggering receptor expressed on myeloid cells-2; source: Expi293F cells, purified, enzymatically biotinylated using BirA) HNTTVFQGVAGQSLQVSCPYDSMKHWGRRKAWCRQLGEKGPCQRVVSTHNLWLLSFLRRWNGSTAITDDTLGGTLTITLRNLQPHDAGLYQCQSLHGSEADTLRKVLVEVLADPLDHRDAGDLWFPGESESFEDAHVEHSISRSLLEGEIPFPPTS | 16.5 ± 0.2
TREM2 R47H (receptor, human, UniProt Q9NZC2 19-230, looked up, biotin on the C-terminal BirA biotinylation sequence, TREM2, human, AD risk variant; As m1 with the substitution; source: Expi293F cells, purified, enzymatically biotinylated using BirA) HNTTVFQGVAGQSLQVSCPYDSMKHWGRHKAWCRQLGEKGPCQRVVSTHNLWLLSFLRRWNGSTAITDDTLGGTLTITLRNLQPHDAGLYQCQSLHGSEADTLRKVLVEVLADPLDHRDAGDLWFPGESESFEDAHVEHSISRSLLEGEIPFPPTS | 79.8 ± 2.4
TREM2 R62H (receptor, human, UniProt Q9NZC2 19-230, looked up, biotin on the C-terminal BirA biotinylation sequence, TREM2, human, AD risk variant; As m1 with the substitution; source: Expi293F cells, purified, enzymatically biotinylated using BirA) HNTTVFQGVAGQSLQVSCPYDSMKHWGRRKAWCRQLGEKGPCQHVVSTHNLWLLSFLRRWNGSTAITDDTLGGTLTITLRNLQPHDAGLYQCQSLHGSEADTLRKVLVEVLADPLDHRDAGDLWFPGESESFEDAHVEHSISRSLLEGEIPFPPTS | 75
TREM2 D87N (receptor, human, UniProt Q9NZC2 19-230, looked up, biotin on the C-terminal BirA biotinylation sequence, TREM2, human, AD risk variant; As m1 with the substitution; source: Expi293F cells, purified, enzymatically biotinylated using BirA) HNTTVFQGVAGQSLQVSCPYDSMKHWGRRKAWCRQLGEKGPCQRVVSTHNLWLLSFLRRWNGSTAITDNTLGGTLTITLRNLQPHDAGLYQCQSLHGSEADTLRKVLVEVLADPLDHRDAGDLWFPGESESFEDAHVEHSISRSLLEGEIPFPPTS | 28.4 ± 0.5
TREM2 T96K (receptor, human, UniProt Q9NZC2 19-230, looked up, biotin on the C-terminal BirA biotinylation sequence, TREM2, human, AD risk variant; As m1 with the substitution; source: Expi293F cells, purified, enzymatically biotinylated using BirA) HNTTVFQGVAGQSLQVSCPYDSMKHWGRRKAWCRQLGEKGPCQRVVSTHNLWLLSFLRRWNGSTAITDDTLGGTLTIKLRNLQPHDAGLYQCQSLHGSEADTLRKVLVEVLADPLDHRDAGDLWFPGESESFEDAHVEHSISRSLLEGEIPFPPTS | 23.7 ± 0.4
TREM2 R46D (receptor, biotin on the C-terminal BirA biotinylation sequence) HNTTVFQGVAGQSLQVSCPYDSMKHWGDRKAWCRQLGEKGPCQRVVSTHNLWLLSFLRRWNGSTAITDDTLGGTLTITLRNLQPHDAGLYQCQSLHGSEADTLRKVLVEVLADPLD | 18 ± 0.3
TREM2 R77D (receptor, biotin on the C-terminal BirA biotinylation sequence) HNTTVFQGVAGQSLQVSCPYDSMKHWGRRKAWCRQLGEKGPCQRVVSTHNLWLLSFLRDWNGSTAITDDTLGGTLTITLRNLQPHDAGLYQCQSLHGSEADTLRKVLVEVLADPLD | 114 ± 4
TREM2 W78D (receptor, biotin on the C-terminal BirA biotinylation sequence) HNTTVFQGVAGQSLQVSCPYDSMKHWGRRKAWCRQLGEKGPCQRVVSTHNLWLLSFLRRDNGSTAITDDTLGGTLTITLRNLQPHDAGLYQCQSLHGSEADTLRKVLVEVLADPLD | 17.2 ± 0.4
TREM2 R122E (receptor, biotin on the C-terminal BirA biotinylation sequence) HNTTVFQGVAGQSLQVSCPYDSMKHWGRRKAWCRQLGEKGPCQRVVSTHNLWLLSFLRRWNGSTAITDDTLGGTLTITLRNLQPHDAGLYQCQSLHGSEADTLEKVLVEVLADPLD | 29.4 ± 0.4
TREM2 L69D/L71D (receptor, biotin on the C-terminal BirA biotinylation sequence) HNTTVFQGVAGQSLQVSCPYDSMKHWGRRKAWCRQLGEKGPCQRVVSTHNDWDLSFLRRWNGSTAITDDTLGGTLTITLRNLQPHDAGLYQCQSLHGSEADTLRKVLVEVLADPLD | 20.2 ± 0.3
TREM2 W44D/L69D/L71D (receptor, biotin on the C-terminal BirA biotinylation sequence) HNTTVFQGVAGQSLQVSCPYDSMKHDGRRKAWCRQLGEKGPCQRVVSTHNDWDLSFLRRWNGSTAITDDTLGGTLTITLRNLQPHDAGLYQCQSLHGSEADTLRKVLVEVLADPLD | 25.8 ± 0.3

From article PMC11419269 (Research Square, 2024)
